Reference: patent publication US20230357414A1 (SYNTHEKINE, published 2023)

T1: extracellular domain of mouse IL12Rb2 (614 amino acids, amino acids 24-637 of the mIL12Rb2 precursor, UniProt … (mouse, UniProt P97378 24-637))
T1 construct: also called mIL12Rb2 ECD; mIL12Rb2 ECD antigen
T1 sequence: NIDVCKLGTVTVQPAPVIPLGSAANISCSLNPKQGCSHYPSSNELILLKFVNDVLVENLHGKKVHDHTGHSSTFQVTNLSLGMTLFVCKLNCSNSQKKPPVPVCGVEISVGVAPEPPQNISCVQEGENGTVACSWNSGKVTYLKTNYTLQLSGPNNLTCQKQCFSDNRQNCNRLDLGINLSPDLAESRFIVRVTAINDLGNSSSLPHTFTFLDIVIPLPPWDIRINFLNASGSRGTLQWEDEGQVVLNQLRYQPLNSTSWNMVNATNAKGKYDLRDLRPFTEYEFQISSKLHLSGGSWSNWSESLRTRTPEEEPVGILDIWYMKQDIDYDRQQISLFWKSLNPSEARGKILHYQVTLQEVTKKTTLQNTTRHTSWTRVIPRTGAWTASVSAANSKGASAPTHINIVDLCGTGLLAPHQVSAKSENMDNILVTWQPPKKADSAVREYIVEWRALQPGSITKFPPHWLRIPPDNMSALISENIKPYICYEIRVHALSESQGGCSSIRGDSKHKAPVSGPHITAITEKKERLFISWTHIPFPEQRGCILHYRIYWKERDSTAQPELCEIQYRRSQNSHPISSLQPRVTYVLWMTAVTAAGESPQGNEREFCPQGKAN


biological target: T1, extracellular domain of mouse IL12Rb2 …; assay: periplasmic extract ELISA on antigen-coated plate; positive if A450 at least threefold over PBS-coated control
Protocol: Upon completion of the biopanning of Example 3, three 96-well plates of individual phage clones were isolated in order to perform periplasmic extract ELISA (PE-ELISA) on IL12Rb2 coated plates to identify positive VHH binders that selectively bound IL12Rb2. A 96-well plate was coated with IL12Rb2 and PBS under the same conditions. Next, wells were blocked at 37° C. for 1 h. Then, 100 μl of extracted antibodies was added to each well and incubated for 1 h. Subsequently, 100 μl of anti-tag polyclonal antibody conjugated to HRP was added to each well and incubated at 37° C. for 1 h. Plates were developed with TMB substrate. The reaction was stopped by the addition of H2SO4. Absorbance at 450 nm was read on a microtiter plate reader. Antibodies with absorbance of the antigen-coated well at least threefold greater than PBS-coated control are VHHs that specifically bind to IL 12Rb2. Positive clones were sequenced, and sequences analyzed to identify unique clonotypes

Binder | binding result
mIL12Rb2 VHH15 (VHH, Camel VHH, tested as a periplasmic extract of a phage clone; also called anti-mouse IL12Rb2 VHH15; not shown: HA/His tag encoded by the pMECS phagemid) VHH: QVQLQESGGGSVQDGGSLRLSCAASGDIYARNCMGWFRQAPGKEREKIAVADTGGRSPYYADSVKGRFTISRDNAKNTVDLQMNSLKPEDTAVYYCAAGPLVPVVNTAARCVYEYWGQGTQVTVSS | binds
mIL12Rb2 VHH14 (VHH, Camel VHH, tested as a periplasmic extract of a phage clone; also called anti-mouse IL12Rb2 VHH14; not shown: HA/His tag encoded by the pMECS phagemid) VHH: QVQLQESGGGSVQAGGSLRLSCAASGATNSNRHMGWFRQAPGKEREGVAAIYTGYTGGGNTYYADSVRDRFTISQDNAKNTLYLQMNSLTPEDTAMYYCAADLTRWYSGGWRDPRGYKYWGQGTQVTVSS | binds
mIL12Rb2 VHH16 (VHH, Camel VHH, tested as a periplasmic extract of a phage clone; also called anti-mouse IL12Rb2 VHH16; not shown: HA/His tag encoded by the pMECS phagemid) VHH: QVQLQESGGGSVQAGGSLRLSCAASGATNSNRHMGWFRQAPGKEREGVAAIYTGYTGGGNTYYADSVKDRFTISQDNAKNTLYLQMNSLTPEDTAMYYCAADLTRWYSGGWRDPRGYKYWGQGTQVTVSS | binds
mIL12Rb2 VHH10 (VHH, Camel VHH, tested as a periplasmic extract of a phage clone; also called anti-mouse IL12Rb2 VHH10; not shown: HA/His tag encoded by the pMECS phagemid) VHH: QVQLQESGGGSVQAGGSLRLSCAASGYTFSNHHMGWFRQAPGKEREGVAAIYTGAGNIYYADSVKDRFTISKDTAKNTLYLQMNSLTPEDTGMYYCAADLTRWYSGGWRDPRGYKYWGQGTQVTVSS | binds
mIL12Rb2 VHH12 (VHH, Camel VHH, tested as a periplasmic extract of a phage clone; also called anti-mouse IL12Rb2 VHH12; not shown: HA/His tag encoded by the pMECS phagemid) VHH: QVQLQESGGGVVQPGGSLRLSCAASGYTFSNHHMGWFRQAPGKEREGVAAIYTGAGNIYYADSVKDRFTISKDTAKNTLYLQMNSLTPEDTGMYYCAADLTRWYSGGWRDPRGYKYWGQGTQVTVSS | binds
mIL12Rb2 VHH13 (VHH, Camel VHH, tested as a periplasmic extract of a phage clone; also called anti-mouse IL12Rb2 VHH13; not shown: HA/His tag encoded by the pMECS phagemid) VHH: QVQLQESGGGSVQAGGSLRLSCAVSGYTFSNHHMGWFRQAPGKEREGVAAIYTGAGNIYYADSVKDRFTISKDTAKNTLYLQMNSLTPEDTGMYYCAADLTRWYSGGWRDPRGYKYWGQGTQVTVSS | binds
mIL12Rb2 VHH11 (VHH, Camel VHH, tested as a periplasmic extract of a phage clone; also called anti-mouse IL12Rb2 VHH11; not shown: HA/His tag encoded by the pMECS phagemid) VHH: QVQLQESGGGPVQAGGSLRLSCAASGYTFSNHHMGWFRQAPGKEREGVAAIYTGAGNIYYADSVKDRFTISKDTAKNTLYLQMNSLTPEDTGMYYCAADLTRWYSGGWRDPRGYKYWGQGTQVTVSS | binds
